Results on 1 molecule are retold here after US20160289309A1.

Experiment [1] concerns the target Tau in cerebrospinal fluid of cynomolgus monkeys (free Tau / extracellular Tau, eTau) (cynomolgus monkey (Macaca fascicularis)). Kind of experiment: cell-based or functional assay.
The target is the same in experiment [2]. Kind of experiment: estimate from a PK/PD model fitted to free eTau (ELISA) in CSF of cynomolgus monkeys dosed with hu-IPN002; not a direct binding assay.

B1: hu-IPN002 (antibody, IgG4, V domains shown)
VH: EVHLVESGGALVKPGGSLRLSCAASGFSFSKYGMSWVRQAPGKGLEWVATISSSGSRTYYPDSVKGRFTISRDNAKNTLYLQMNSLRAEDTAMYYCSISWDGAMDYWGQGTTVTVSS
VL: DVVMTQSPLSLPVTLGQPASISCKSSQSIVHSNGNTYLEWYLQKPGQSPQLLVYKVSNRFSGVPDRFSGSGSGTDFTLKISRVEAEDVGTYYCFQGSLVPWAFGGGTKVEIK
As to B1, in experiment [1], the free eTau level in CSF between 8 and 168 hours, 20 mg/kg dose (% of baseline) lay within 1.35 to 7.44; the free eTau level in CSF between 48 and 96 hours, 5 mg/kg dose (% of baseline) is 17.3 to 21; the maximal reduction of CSF free eTau, single 5 mg/kg IV dose in cynomolgus monkeys is 83%; the maximal reduction of CSF free eTau, single 20 mg/kg IV dose in cynomolgus monkeys is 99%. For the same molecule, in experiment [2], the Kd was 0.16 nM.

Broadly, the Kd is the free concentration of one partner at which half of the binding sites on the other are occupied at equilibrium, for simple one-to-one binding.
